Test results: patent US20240301052A1 (LANOVA MEDICINES DEVELOPMENT, published 2024)
Changes are numbered by the printed parent chain.

Experiments:
human SLC34A2 [1] = biological target: T1, human SLC34A2 (human, UniProt O95436 1-690); assay: FACS, OVCAR3 cells
T1 construct: whole, on cells; also called human solute carrier 34 A2; NaPi2b
T1 sequence (looked up): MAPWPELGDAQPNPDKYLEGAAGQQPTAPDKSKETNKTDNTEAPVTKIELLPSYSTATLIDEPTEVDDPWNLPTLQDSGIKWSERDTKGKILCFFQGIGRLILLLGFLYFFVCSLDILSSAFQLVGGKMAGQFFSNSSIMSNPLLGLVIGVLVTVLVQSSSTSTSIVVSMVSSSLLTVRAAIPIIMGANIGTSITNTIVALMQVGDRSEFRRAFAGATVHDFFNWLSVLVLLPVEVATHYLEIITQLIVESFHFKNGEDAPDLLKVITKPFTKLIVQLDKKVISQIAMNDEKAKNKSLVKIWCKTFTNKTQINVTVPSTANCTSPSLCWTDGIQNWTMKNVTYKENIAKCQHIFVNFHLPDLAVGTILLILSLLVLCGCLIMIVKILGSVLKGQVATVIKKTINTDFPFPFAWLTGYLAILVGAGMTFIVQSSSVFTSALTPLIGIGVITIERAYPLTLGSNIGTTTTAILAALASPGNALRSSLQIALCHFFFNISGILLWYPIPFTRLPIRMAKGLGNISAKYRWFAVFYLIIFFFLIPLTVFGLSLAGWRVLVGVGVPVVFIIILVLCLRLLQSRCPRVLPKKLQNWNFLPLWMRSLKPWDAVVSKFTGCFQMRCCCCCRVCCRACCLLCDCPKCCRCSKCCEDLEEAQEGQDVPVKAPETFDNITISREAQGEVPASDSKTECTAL

human SLC34A2 [2] = biological target: T1, human SLC34A2; assay: cell-based or functional assay
Rhesus SLC34A2 = biological target: T2, Rhesus SLC34A2 (Rhesus, UniProt F7HDA3 1-690); assay: FACS, HEK293/Rhesus SLC34A2 cells
T2 construct: whole, on cells
T2 sequence: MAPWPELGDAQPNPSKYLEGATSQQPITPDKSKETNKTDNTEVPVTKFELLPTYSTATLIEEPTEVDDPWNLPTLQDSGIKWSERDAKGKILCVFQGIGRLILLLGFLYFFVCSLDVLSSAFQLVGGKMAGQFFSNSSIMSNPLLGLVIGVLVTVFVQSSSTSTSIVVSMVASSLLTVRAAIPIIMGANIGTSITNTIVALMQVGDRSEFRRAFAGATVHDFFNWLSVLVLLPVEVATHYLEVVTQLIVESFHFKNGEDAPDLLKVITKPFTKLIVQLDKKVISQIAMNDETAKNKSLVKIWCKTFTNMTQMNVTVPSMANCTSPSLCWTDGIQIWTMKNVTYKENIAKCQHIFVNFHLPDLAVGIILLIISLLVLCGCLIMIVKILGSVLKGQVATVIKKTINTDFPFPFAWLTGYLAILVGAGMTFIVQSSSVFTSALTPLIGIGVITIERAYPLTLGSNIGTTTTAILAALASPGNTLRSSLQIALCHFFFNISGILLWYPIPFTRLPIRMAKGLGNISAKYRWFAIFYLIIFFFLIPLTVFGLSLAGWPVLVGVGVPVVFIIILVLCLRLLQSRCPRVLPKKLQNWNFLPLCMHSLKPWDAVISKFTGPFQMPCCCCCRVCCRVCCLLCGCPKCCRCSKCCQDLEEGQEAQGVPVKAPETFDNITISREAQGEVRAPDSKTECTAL
Description: (§1) Briefly, the Rhesus SLC34A2 expressing HEK293 engineering cells (HEK293/Rhesus_SLC34A2) were incubated with chimeric Abs (from 200 nM, 4 folds dilution, 8 points). After incubation at 4° C. for 60 minutes, the cells were washed with FACS buffer twice, then stained with fluorescent conjugated secondary antibody at 4° C. for 30 minutes. After that the cells were washed twice and analyzed by flow cytometry.

human SLC34A2 [3] = biological target: T1, human SLC34A2; assay: cell-based or functional assay; remark: listed apart in the source
Cynomolgus SLC34A2 = biological target: T3, Cynomolgus SLC34A2 (Cynomolgus, UniProt A0A2K5UHY1 1-690); assay: FACS, cells expressing Cynomolgus SLC34A2
T3 construct: whole, on cells; also called Cyno SLC34A2
T3 sequence: T2 sequence with P325H, I530V

human SLC34A2 [4] = biological target: T1, human SLC34A2; assay: FACS, HEK293/human SLC34A2 cells
Description: as §1, with “OVCAR3 cells or HEK293 cells expressing human” for “the Rhesus”, “SLC34A2” for “SLC34A2 expressing HEK293 engineering cells (HEK293/Rhesus_SLC34A2)”, “antibodies” for “Abs”

human SLC34A2 [5] = biological target: T1, human SLC34A2; assay: FACS, OVCAR3 cells; remark: listed apart in the source
Description: In this example, cell based binding of chimeric antibodies (hIgG1) prepared from the murine antibodies on human SLC34A2 expressing cells were assessed using flow cytometry.
as §1, with “OVCAR3 cells or HEK293 cells expressing human” for “the Rhesus”, “SLC34A2” for “SLC34A2 expressing HEK293 engineering cells (HEK293/Rhesus_SLC34A2)”, “antibodies” for “Abs”

human SLC34A2 [6] = biological target: T1, human SLC34A2; assay: FACS, RMG-1 cells
Description: Based on the foregoing cell-based binding results, some of the chimeric antibodies were selected for further cell based binding on human SLC34A2 expressing cells using flow cytometry. RMG-1 cells were incubated with the selected chimeric antibodies (from 200 nM, 4 folds dilution, 8 points). After incubation at 4° C. for 60 minutes, the cells were washed with FACS buffer twice, then stained with fluorescent conjugated secondary antibody at 4° C. for 30 minutes. Afterwards the cells were washed twice and analyzed by flow cytometry.

B1: 91C9F1.p1.z1 hIgG1 (antibody, V domains shown)
VH: QVQLVQSGAEVKKPGSSVKVSCKASGFFFTEYIIHWVRQAPGQGLEWMGGIIPNNDVTNYKQNFRGRVTITADESTSTAYMELSSLRSEDTAVYYCARWRNAYYSAMDSWGQGTTVTVSS
VL: DIQMTQSPSSLSASVGDRVTITCTASQDVGTAVAWYQQKPGKVPKLLIYWASTRHTGVPSRFSGSGSGTDFTLTISSLQPEDVATYYCQQYRTSPLTFGGGTKVEIK
notes: humanized hIgG1
- EC50 (human SLC34A2 [1]): 3.78 nM
- Top (MFI) (human SLC34A2 [1]): 34200 MFI

B2: 91C9F1.p1.z2 hIgG1 (antibody, V domains shown)
VH: B1 VH
VL: B1 VL with A13T, V43S, S60E, Y87F
notes: humanized hIgG1
- EC50 (human SLC34A2 [1]): 3.32 nM
- Top (MFI) (human SLC34A2 [1]): 34500 MFI

B3: 91C9F1.p1.z3 hIgG1 (antibody, V domains shown)
VH: B1 VH
VL: B1 VL with M4V, A13T, V43S, S60E, S63T, L78V, Y87F, G100V
notes: humanized hIgG1
- EC50 (human SLC34A2 [1]): 4.04 nM
- Top (MFI) (human SLC34A2 [1]): 35500 MFI

B4: 91C9F1.p1.z5 hIgG1 (antibody, V domains shown)
VH: B1 VH with A24T, M48I, I70L, E74K
VL: B1 VL
notes: humanized hIgG1
- EC50 (human SLC34A2 [1]): 2.95 nM
- Top (MFI) (human SLC34A2 [1]): 36900 MFI

B5: 91C9F1.p1.z8 hIgG1 (antibody, V domains shown)
VH: B1 VH with A24T, M48I, I70L, E74K
VL: DIVVTQSPSSLSTSVGDRVTITCTASQDVGTAVAWYQQKPGKSPKLLIYWASTRHTGVPERFTGSGSGTDFTLTISSVQPEDVATYFCQQYRTSPLTFGVGTKLELK
notes: humanized hIgG1
- EC50 (human SLC34A2 [1]): 2.13 nM
- Top (MFI) (human SLC34A2 [1]): 35700 MFI

B6: 91C9F1.p1.z9 hIgG1 (antibody, V domains shown)
VH: B1 VH with K12V, A24T, A40S, M48I, V68A, I70L, E74K
VL: B1 VL
notes: humanized hIgG1
- EC50 (human SLC34A2 [1]): 2.72 nM
- Top (MFI) (human SLC34A2 [1]): 37000 MFI

B7: 91C9F1.p1.z11 hIgG1 (antibody, V domains shown)
VH: B1 VH with K12V, A24T, A40S, M48I, V68A, I70L, E74K
VL: B5 VL with V3Q, L104V, L106I
notes: humanized hIgG1
- EC50 (human SLC34A2 [1]): 1.41 nM
- Top (MFI) (human SLC34A2 [1]): 31000 MFI

B8: 91C9F1.p1.z12 hIgG1 (antibody, V domains shown)
VH: B1 VH with K12V, A24T, A40S, M48I, V68A, I70L, E74K
VL: B5 VL
notes: humanized hIgG1
- EC50 (human SLC34A2 [1]): 1.77 nM
- Top (MFI) (human SLC34A2 [1]): 34500 MFI

B9: xi78D1B10 hIgG1 (antibody, V domains shown)
VH: QVQLQQPGADLVKPGASVKLSCKASGFTFTSYIIHWVKQTPGQGLEWIGAIYPGNGDTSYIQKFKGRATLTADKSSTTAYMQLGGLTSEDSAVYYCARGTYGSSAWFVYWGQGTLVTVSA
VL: DIVLTQSPATLSVTPGDSVSLSCRASQSISNNLYWYQQKSHESPRLLIKYASQSISGIPSRFRGSGSGTDFTLSINSVETEDFGMYFCQQSNSWPLTFGAGTKLELK
notes: chimeric, hIgG1
- ADCC reporter EC50 (human SLC34A2 [2]): 2.6 nM
- ADCC reporter Top (MFI) (human SLC34A2 [2]): 212000 MFI
- EC50 (Rhesus SLC34A2): 1.58 nM
- Top (MFI) (Rhesus SLC34A2): 16000 MFI
- cytotoxicity EC50 (human SLC34A2 [3]): 0.5 nM
- cytotoxicity Inhibition % (human SLC34A2 [3]): 94%
- EC50 (Cynomolgus SLC34A2): 1.5 nM
- Top (MFI) (Cynomolgus SLC34A2): 4400 MFI
- EC50 (human SLC34A2 [4]): 1.26 nM
- Top (MFI) (human SLC34A2 [4]): 47700 MFI
- EC50 (human SLC34A2 [5]): 2.52 nM
- Top (MFI) (human SLC34A2 [5]): 27500 MFI
- EC50 (human SLC34A2 [6]): 2.1 nM
- Top (MFI) (human SLC34A2 [6]): 9860 MFI

B10: xi87H12B7 hIgG1 (antibody, V domains shown)
VH: QVQLQQPGAEVVRPGASVKMSCKASGYTFTSYIVHWVKQPPGQGLEWIGAIYPGNGDTSYIQKFKGRATLTADKSSSTVYMQLSSLTSEDSAVYYCARGHYYGSAAWFGFWGQGTLVTVSA
VL: DILLTQSPAILSVSPGERVSFSCRASQNIGTSIHWYQQRTNDSPRLLMRYASESVSGIPSRFSGSGSGTDFTLSINSVESEDIADYYCQQSNTWPLTFGAGTKLELK
notes: chimeric, hIgG1
- ADCC reporter EC50 (human SLC34A2 [2]): 5.1 nM
- ADCC reporter Top (MFI) (human SLC34A2 [2]): 195000 MFI
- EC50 (Rhesus SLC34A2): 2.85 nM
- Top (MFI) (Rhesus SLC34A2): 18300 MFI
- cytotoxicity EC50 (human SLC34A2 [3]): 0.35 nM
- cytotoxicity Inhibition % (human SLC34A2 [3]): 82.6%
- EC50 (Cynomolgus SLC34A2): 7.66 nM
- Top (MFI) (Cynomolgus SLC34A2): 4710 MFI
- EC50 (human SLC34A2 [4]): 1.62 nM
- Top (MFI) (human SLC34A2 [4]): 44900 MFI
- EC50 (human SLC34A2 [5]): 5.43 nM
- Top (MFI) (human SLC34A2 [5]): 27800 MFI
- EC50 (human SLC34A2 [6]): 9.11 nM
- Top (MFI) (human SLC34A2 [6]): 9660 MFI

B11: xi94E9B12 hIgG1 (antibody, V domains shown)
VH: QVQLQQPGAELVKPGASVKMSCKASGYTFTSYNMQWVKQTYGQGLEWIGAISPGSGETSYNQNFKVKATLTADKISSTAYMQLSSLTSEDSAVYYCARAARAEGWFAYWGQGTLVTVSA
VL: DIVMTQSHKFMSTSVGDRVSITCKASQDVGHAVVWYQQKPGQFPKLLIYWASTRHAGVPDRFTGSGSGTDFTLTISNVQSEDLADYFCQQFRSIPLTFGSGTKLEIK
notes: chimeric, hIgG1
- ADCC reporter EC50 (human SLC34A2 [2]): 3.3 nM
- ADCC reporter Top (MFI) (human SLC34A2 [2]): 382000 MFI
- EC50 (Rhesus SLC34A2): 2.38 nM
- Top (MFI) (Rhesus SLC34A2): 18700 MFI
- cytotoxicity EC50 (human SLC34A2 [3]): 0.85 nM
- cytotoxicity Inhibition % (human SLC34A2 [3]): 83.6%
- EC50 (Cynomolgus SLC34A2): 2.51 nM
- Top (MFI) (Cynomolgus SLC34A2): 3580 MFI
- EC50 (human SLC34A2 [4]): 2.48 nM
- Top (MFI) (human SLC34A2 [4]): 106000 MFI
- EC50 (human SLC34A2 [5]): 11 nM
- Top (MFI) (human SLC34A2 [5]): 46200 MFI
- EC50 (human SLC34A2 [6]): 9.05 nM
- Top (MFI) (human SLC34A2 [6]): 10000 MFI

B12: 91C9F1.p1.z14 hIgG1 (antibody, V domains shown)
VH: QVQLVQSGAEVVKPGSSVKISCKTSGFFFTEYIIHWVKQSPGQGLEWIGGIIPNNDVTNYKQNFRGRATLTADKSTNTAYMELRSSLRSEDTAVYYCARWRNAYYSAMDSWGQGTTVTVSS
VL: B1 VL with A13T, V43S, S60E, Y87F
notes: humanized hIgG1
- EC50 (human SLC34A2 [1]): 3.87 nM
- Top (MFI) (human SLC34A2 [1]): 36200 MFI
